The term Km denotes the substrate concentration at which the rate is half of its maximum. As a reminder, the kcat is the maximal rate divided by the concentration of active sites. For orientation: kcat/Km means the second-order rate constant that governs catalysis at low substrate concentration.

Substrate in series [1]: CC(=O)CC(=O)SCCNC(=O)CCNC(=O)[C@H](O)C(C)(C)COP(=O)(O)OP(=O)(O)OC[C@H]1O[C@@H](n2cnc3c(N)ncnc32)[C@H](O)[C@@H]1OP(=O)(O)O
The series is described as follows: purified protein, by the assay type. The settings on record: other: reverse direction, pH 7.5, 2 mM CoA, 25° C.

Substrate in series [2]: CC(=O)SCCNC(=O)CCNC(=O)[C@H](O)C(C)(C)COP(=O)(O)OP(=O)(O)OC[C@H]1O[C@@H](n2cnc3c(N)ncnc32)[C@H](O)[C@@H]1OP(=O)(O)O
The series is described as follows: purified protein, by the assay type. Particulars: other: acetyl-CoA condensation, pH 7.5, 0.2 mM NADH, 25° C.

Substrate in series [3]: CC(=O)CC(=O)SCCNC(=O)CCNC(=O)[C@H](O)C(C)(C)COP(=O)(O)OP(=O)(O)OC[C@H]1O[C@@H](n2cnc3c(N)ncnc32)[C@H](O)[C@@H]1OP(=O)(O)O
The series is described as follows: purified protein, by the assay type. Format: biochemical, Escherichia coli. The settings on record: other: reverse direction, pH 7.5, 2 mM CoA, 25° C. An excerpt:
(§1) For enzyme characterization, E. coli fadA and fadB genes were cloned from MG1655 genomic DNA into the pUCBB-ntH6 vector^43 to yield a constitutively expressed gene with a n-terminal 6 His-tag that can be cleaved by Thrombin. fadA was amplified as two halves with the primers fadANdeI5p:fadAmidrev (1st half) and fadAmidfor:fadANotI3p (2nd half) (Supplementary Table S3).
(§2) fadB was amplified in three parts with fadBNdeI5p:fadBmid1rev (1st part), fadBmid1for:fadBmid2rev (2nd part), and fadBmid2for:fadBNotI3p (3rd part) (Supplementary Table S3). fadA and fadB PCR products sections were combined by overlap extension PCR to yield the whole genes, which were subsequently digested with NdeI and NotI restriction enzymes and ligated into pUCBB-ntH6 that was previously digested with NdeI and NotI to yield pUCBB-ntH6-FadA and pUCBB-ntH6-FadB.
(§3) Cultures for enzymatic assays were grown overnight in 100 mL of LB media at 37° C. in 250 mL baffled flasks (Wheaton Industries, Inc., Millville, N.J.) in E. coli BL21 (DE3) cells induced with either 1 mM IPTG (pCA24N, pTrcHis2A) or 1 mM Arabinose (pUCBB-pBAD) at an OD600˜0.6, or expressed constitutively (pUCBB-ntH6). Reactions were monitored on either a Synergy HT plate reader (BioTek Instruments, Inc., Winooski, Vt.) at 25° C. (for reactions monitored at 300 nm or higher) or in a Biomate 5 Spectrophotometer (Thermo Scientific, Waltham, Mass.) for reactions at 263 nm. […]
(§4) For kinetic characterization, his-tagged proteins of AtoB, FadA, FadB, caHBD, egTER were purified from the B-PER supernatant fractions using Talon Metal Affinity Resin (Clontech Laboratories, Inc., Mountain View, Calif.) using gravity purification. […] Enzyme concentration was established by measuring the absorbance at […] and extinction coefficients predicted for each enzyme by the ProtParam program (web.expasy.org/protparam/).
(§5) For kinetic characterization, an appropriate amount of enzyme was established by checking linear range near predicted KM values. Then, the rates were measured for a range of substrates in order to establish kcat and KM. […]

Substrate in series [4]: CC(=O)CC(=O)SCCNC(=O)CCNC(=O)[C@H](O)C(C)(C)COP(=O)(O)OP(=O)(O)OC[C@H]1O[C@@H](n2cnc3c(N)ncnc32)[C@H](O)[C@@H]1OP(=O)(O)O
Nature of the series: 3-Hydroxyacyl-CoA (β-hydroxybutyryl-CoA) dehydrogenase kinetics (oxidation of NADH at 340 nm). Format: biochemical, Escherichia coli. The settings on record: other: NADH dependent reduction, pH 7.5, 0.2 mM NADH, 25° C.
Description: as §1, §2, §3, §4, §5

Substrate in series [5]: C/C=C/C(=O)SCCNC(=O)CCNC(=O)[C@H](O)C(C)(C)COP(=O)(O)OP(=O)(O)OC[C@H]1O[C@@H](n2cnc3c(N)ncnc32)[C@H](O)[C@@H]1OP(=O)(O)O
The series is described as follows: Crotonyl-CoA reductase kinetics (loss of NADH absorbance). Particulars: other: NADH as co-factor, 0.2 mM NADH, pH 7.5, 25° C. Format: biochemical, Euglena gracilis.
Description: For AtoB and thioesterase characterization assays, the pCA24N-gene (-gfp) plasmids from the ASKA collection^44 were used. For expression of E. gracilis TER for kinetic characterization, the egTER gene was cloned into pTrcHis2A using the In-Fusion protocol (Clontech Laboratories, Inc., Mountain View, Calif.) following PCR amplification from the aforementioned codon-optimized egTER containing plasmid with the primer pair of F1pTH6hisEgter and R1pTH6hisEgter (Supplementary Table S3).
as §3, §4
For kinetic characterization, an appropriate amount of enzyme was established by checking linear range near predicted KM values. Then, the rates were measured for a range of substrates in order to establish kcat and KM. In the cases of FadB for the crotonase reaction and FadA in the “forward” thiolase reaction coupled with HBD, substrate saturation could not be established, as such, the kcat/KM for the reaction was determined by dividing the linear slope of Velocity vs. [Substrate] by the amount of enzyme used in the assays. […]

B1: E. coli AtoB (thiolase), wild type, his-tagged (Escherichia coli K-12) (protein)
chain: MKNCVIVSAVRTAIGSFNGSLASTSAIDLGATVIKAAIERAKIDSQHVDEVIMGNVLQAGLGQNPARQALLKSGLAETVCGFTVNKVCGSGLKSVALAAQAIQAGQAQSIVAGGMENMSLAPYLLDAKARSGYRLGDGQVYDVILRDGLMCATHGYHMGITAENVAKEYGITREMQDELALHSQRKAAAAIESGAFTAEIVPVNVVTRKKTFVFSQDEFPKANSTAEALGALRPAFDKAGTVTAGNASGINDGAAALVIMEESAALAAGLTPLARIKSYASGGVPPALMGMGPVPATQKALQLAGLQLADIDLIEANEAFAAQFLAVGKNLGFDSEKVNVNGGAIALGHPIGASGARILVTLLHAMQARDKTLGLATLCIGGGQGIAMVIERLN
As to B1, in series [1], the Michaelis constant (Km) was determined as 68.1 ± 2.56 µM, the kcat was determined as 9.23 s⁻¹ and the catalytic efficiency (kcat/Km) was 136000 M⁻¹ s⁻¹. Further, in series [2], the Km worked out at 892.0 ± 56.5 µM, the turnover number (kcat) came to 3.17 s⁻¹ and the kcat/Km was found to be 3550 M⁻¹ s⁻¹.

B2: E. coli FadA (3-ketoacyl-CoA thiolase, YP_026272.1), wild type, his-tagged (Escherichia coli K-12) (protein)
chain: MEQVVIVDAIRTPMGRSKGGAFRNVRAEDLSAHLMRSLLARNPALEAAALDDIYWGCVQQTLEQGFNIARNAALLAEVPHSVPAVTVNRLCGSSMQALHDAARMIMTGDAQACLVGGVEHMGHVPMSHGVDFHPGLSRNVAKAAGMMGLTAEMLARMHGISREMQDAFAARSHARAWAATQSAAFKNEIIPTGGHDADGVLKQFNYDEVIRPETTVEALATLRPAFDPVNGMVTAGTSSALSDGAAAMLVMSESRAHELGLKPRARVRSMAVVGCDPSIMGYGPVPASKLALKKAGLSASDIGVFEMNEAFAAQILPCIKDLGLIEQIDEKINLNGGAIALGHPLGCSGARISTTLLNLMERKDVQFGLATMCIGLGQGIATVFERV
notes: assayed alone without FadB
On to B2, for which, in series [3], the Michaelis constant (Km) is 422.5 ± 57.3 µM, the kcat is 0.75 ± 0.09 s⁻¹ and the kcat/Km came to 1770 M⁻¹ s⁻¹.

B3: E. coli FadB (hydroxyacyl-CoA dehydrogenase / enoyl-CoA hydratase, NP_418288.1), wild type, his-tagged (Escherichia coli K-12) (protein)
chain: MLYKGDTLYLDWLEDGIAELVFDAPGSVNKLDTATVASLGEAIGVLEQQSDLKGLLLRSNKAAFIVGADITEFLSLFLVPEEQLSQWLHFANSVFNRLEDLPVPTIAAVNGYALGGGCECVLATDYRLATPDLRIGLPETKLGIMPGFGGSVRMPRMLGADSALEIIAAGKDVGADQALKIGLVDGVVKAEKLVEGAKAVLRQAINGDLDWKAKRQPKLEPLKLSKIEATMSFTIAKGMVAQTAGKHYPAPITAVKTIEAAARFGREEALNLENKSFVPLAHTNEARALVGIFLNDQYVKGKAKKLTKDVETPKQAAVLGAGIMGGGIAYQSAWKGVPVVMKDINDKSLTLGMTEAAKLLNKQLERGKIDGLKLAGVISTIHPTLDYAGFDRVDIVVEAVVENPKVKKAVLAETEQKVRQDTVLASNTSTIPISELANALERPENFCGMHFFNPVHRMPLVEIIRGEKSSDETIAKVVAWASKMGKTPIVVNDCPGFFVNRVLFPYFAGFSQLLRDGADFRKIDKVMEKQFGWPMGPAYLLDVVGIDTAHHAQAVMAAGFPQRMQKDYRDAIDALFDANRFGQKNGLGFWRYKEDSKGKPKKEEDAAVEDLLAEVSQPKRDFSEEEIIARMMIPMVNEVVRCLEEGIIATPAEADMALVYGLGFPPFHGGAFRWLDTLGSAKYLDMAQQYQHLGPLYEVPEGLRNKARHNEPYYPPVEPARPVGDLKTA
notes: assayed alone without FadA
B3: in series [4], the Km was 390.0 ± 19.2 µM, the kcat is 25.9 ± 1.2 s⁻¹ and the specificity constant (kcat/Km) is 66500 M⁻¹ s⁻¹.

B4: Euglena gracilis trans-2-enoyl-CoA reductase egTER (AAW66853.1), his-tagged (Euglena gracilis) (protein)
chain: VPQMAEGFSGEATSAWAAAGPQWAAPLVAAASSALALWWWAARRSVRRPLAALAELPTAVTHLAPPMAMFTTTAKVIQPKIRGFICTTTHPIGCEKRVQEEIAYARAHPPTSPGPKRVLVIGCSTGYGLSTRITAAFGYQAATLGVFLAGPPTKGRPAAAGWYNTVAFEKAALEAGLYARSLNGDAFDSTTKARTVEAIKRDLGTVDLVVYSIAAPKRTDPATGVLHKACLKPIGATYTNRTVNTDKAEVTDVSIEPASPEEIADTVKVMGGEDWELWIQALSEAGVLAEGAKTVAYSYIGPEMTWPVYWSGTIGEAKKDVEKAAKRITQQYGCPAYPVVAKALVTQASSAIPVVPLYICLLYRVMKEKGTHEGCIEQMVRLLTTKLYPENGAPIVDEAGRVRVDDWEMAEDVQQAVKDLWSQVSTANLKDISDFAGYQTEFLRLFGFGIDGVDYDQPVDVEADLPSAAQQ
Consider B4, for which, in series [5], the Michaelis-Menten constant (Km) was 98.5 ± 7.7 µM, the turnover number (kcat) turned out to be 1.14 ± 0.08 s⁻¹ and the catalytic efficiency (kcat/Km) came to 11600 M⁻¹ s⁻¹.

The values are drawn from US9994881B2, “Functionalized carboxylic acids and alcohols by reverse fatty acid oxidation in engineered microbes” (William Marsh Rice University, priority 2011, dated 2018).
